Data taken from IntAct's records for PubMed 9162036.

Biological target: ap2m1_rat Ap2m1 (UniProt P84092)
Sequence (P84092 whole entry): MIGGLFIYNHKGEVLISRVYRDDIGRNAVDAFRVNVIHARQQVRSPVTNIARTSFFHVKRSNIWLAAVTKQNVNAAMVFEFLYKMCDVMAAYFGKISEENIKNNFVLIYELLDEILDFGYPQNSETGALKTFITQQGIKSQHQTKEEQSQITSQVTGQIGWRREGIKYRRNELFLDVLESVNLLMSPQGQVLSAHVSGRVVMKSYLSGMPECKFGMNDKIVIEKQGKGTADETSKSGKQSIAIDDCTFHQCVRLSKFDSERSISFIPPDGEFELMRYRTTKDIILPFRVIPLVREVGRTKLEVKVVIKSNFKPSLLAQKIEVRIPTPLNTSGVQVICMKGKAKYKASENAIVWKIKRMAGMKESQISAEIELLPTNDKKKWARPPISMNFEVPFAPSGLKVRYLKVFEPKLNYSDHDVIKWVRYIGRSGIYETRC

Sequence of Trans-Golgi network integral membrane protein TGN38 (Rattus norvegicus (Rat)), P19814 S348A (P19814 whole entry S348A): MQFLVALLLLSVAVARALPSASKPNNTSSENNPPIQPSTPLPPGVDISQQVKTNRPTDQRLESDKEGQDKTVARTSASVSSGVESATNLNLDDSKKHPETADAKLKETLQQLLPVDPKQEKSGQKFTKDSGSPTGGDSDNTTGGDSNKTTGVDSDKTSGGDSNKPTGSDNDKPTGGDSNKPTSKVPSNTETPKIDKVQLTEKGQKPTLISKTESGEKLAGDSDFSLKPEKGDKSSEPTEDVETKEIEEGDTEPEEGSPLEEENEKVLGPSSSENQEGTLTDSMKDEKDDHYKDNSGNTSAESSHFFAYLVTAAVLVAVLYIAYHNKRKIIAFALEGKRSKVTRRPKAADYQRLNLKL
Sequence of Trans-Golgi network integral membrane protein TGN38 (Rattus norvegicus (Rat)), P19814 Y350A (P19814 whole entry Y350A): as the sequence (P19814 whole entry S348A) above, with A348S, Y350A counted along it

Substance | effect of a mutation on the interaction
Trans-Golgi network integral membrane protein TGN38 (Rattus norvegicus (Rat)), P19814 Y350A | decreasing interaction
Trans-Golgi network integral membrane protein TGN38 (Rattus norvegicus (Rat)), P19814 S348A | decreasing interaction
